B1: Tyrosine-protein phosphatase non-receptor type 3 (Homo sapiens), P26045 (parent)
chain: MTSRLRALGGRINNIRTSELPKEKTRSEVICSIHFLDGVVQTFKVTKQDTGQVLLDMVHNHLGVTEKEYFGLQHDDDSVDSPRWLEASKAIRKQLKGGFPCTLHFRVRFFIPDPNTLQQEQTRHLYFLQLKMDICEGRLTCPLNSAVVLASYAVQSHFGDYNSSIHHPGYLSDSHFIPDQNEDFLTKVESLHEQHSGLKQSEAESCYINIARTLDFYGVELHSGRDLHNLDLMIGIASAGVAVYRKYICTSFYPWVNILKISFKRKKFFIHQRQKQAESREHIVAFNMLNYRSCKNLWKSCVEHHTFFQAKKLLPQEKNVLSQYWTMGSRNTKKSVNNQYCKKVIGGMVWNPAMRRSLSVEHLETKSLPSRSPPITPNWRSPRLRHEIRKPRHSSADNLANEMTYITETEDVFYTYKGSLAPQDSDSEVSQNRSPHQESLSENNPAQSYLTQKSSSSVSPSSNAPGSCSPDGVDQQLLDDFHRVTKGGSTEDASQYYCDKNDNGDSYLVLIRITPDEDGKFGFNLKGGVDQKMPLVVSRINPESPADTCIPKLNEGDQIVLINGRDISEHTHDQVVMFIKASRESHSRELALVIRRRAVRSFADFKSEDELNQLFPEAIFPMCPEGGDTLEGSMAQLKKGLESGTVLIQFEQLYRKKPGLAITFAKLPQNLDKNRYKDVLPYDTTRVLLQGNEDYINASYVNMEIPAANLVNKYIATQGPLPHTCAQFWQVVWDQKLSLIVMLTTLTERGRTKCHQYWPDPPDVMNHGGFHIQCQSEDCTIAYVSREMLVTNTQTGEEHTVTHLQYVAWPDHGVPDDSSDFLEFVNYVRSLRVDSEPVLVHCSAGIGRTGVLVTMETAMCLTERNLPIYPLDIVRKMRDQRAMMVQTSSQYKFVCEAILRVYEEGLVQMLDPS

The results in this text go back to IntAct's records for PubMed 10364224.

Variants of B1 are the subject of the first experiment. Conditions: with tera_human VCP.
In the case of D811A, the “effect of a mutation on the interaction” value was “increasing interaction”.

Variants of B1 are the subject of another experiment. The conditions noted are these: with tera_human VCP. The source holds these as a separate data set.
For Y676F;D811A, the “effect of a mutation on the interaction” value was “increasing interaction”.

A further experiment covers variants of B1. The conditions noted are these: with tera_mouse Vcp.
In the case of Y676F;D811A, the “effect of a mutation on the interaction” value is “increasing interaction”.
